Source: patent publication US20030148463A1 (published 2003)
Ends that are not written are not given here. Pep Spots Membrane = cellulose membrane (Jerini Biotools) to which the peptides are covalently attached at their C-termini as individual spots

Tests used:
17-1A peptide 60 = target: T1, 17-1A peptide 60 (human); experiment: peptide spot membrane, electrotransfer, anti-human secondary antibody, chemoluminescence
T1 construct: also called peptide spot 60
T1 peptide: CSERVRTYWIIIE-{Pep Spots Membrane}
Excerpt: (§1) Due to a higher degree of crossreactivity of the secondary HRP-conjugated anti-human immunoglobulin antibody with several peptide spots, bound human antibodies H79 and HD70 were transfered from the Pep Spots Membrane to a blotting membrane, respectively, by means of electrotransfer and subsequently detected by said anti human secondary antibody and chemoluminescence. Specific binding of human antibody H79 could be detected mainly at peptide spots 8, 11, 13, 14, 59-60, 77 and 79; however, no binding was detectable in case of human antibody HD70.
(§2) The PepSpots Membrane with the synthesized peptides was shaken for ten minutes in methanol and then washed three times for ten minutes in TBS-buffer pH8. The membrane was then blocked in casein based blocking solution, containing 0.05 g/ml sucrose for one hour and then once shaken in TBS pH8/0.05%Tween 20 (TBS-T).
(§3) Each of the anti-17-1A antibodies was incubated at room temperature together with the membrane for three hours in blocking solution (1 μg antibody/ml). After three washes in TBS-T for ten minutes each, the horse radish peroxidase (HRP)-conjugated secondary antibody (anti mouse/anti human; 1 μg/ml blocking solution) was incubated for two hours at room temperature together with the membrane. Then the membrane was washed for three times in TBS-T for ten minutes each. Detection of bound antibodies was performed directly on the Pep Spots Membrane in case of M79 according to the protocol of the chemoluminescence kit manufacturer (Boehringer). The blot was regenerated after three washes with TBS-T (10 min.) in a solution containing 50 mM Tris-HCl pH 6.7, 100 mM 2-Mercaptoethanol and 2% (w/v) SDS for 30 min at 50° C. and subsequently reused for epitope mapping of the next antibody. Due to the higher degree of unspecific binding of the anti-human immunoglobulin secondary antibody to the polypeptide-spots on the membrane, a fractionated electrotransfer to a second blotting-membrane followed by detection with the anti-human secondary antibody was carried out in case of HD70 and H79 according to Rüdiger, EMBO 16 (1997) 1501-1507. Incubation with the secondary antibody and antibody detection on the blots was performed as described above.

17-1A peptide 79 = target: T2, 17-1A peptide 79 (human); experiment: as above
T2 construct: also called peptide spot 79
T2 peptide: RYQLDPKFITSIL-{Pep Spots Membrane}
Excerpt: as §1, §2, §3

17-1A peptide 8 = target: T3, 17-1A peptide 8 (human); experiment: as above
T3 construct: also called peptide spot 8
T3 peptide: NYKLAVNCFVNNN-{Pep Spots Membrane}
Excerpt: as §1, §2, §3

17-1A peptide 14 = target: T4, 17-1A peptide 14 (human, cysteine pairing not given here); experiment: as above
T4 construct: also called peptide spot 14
T4 peptide: NRQCQCTSVGAQN-{Pep Spots Membrane}
Excerpt: as §1, §2, §3

17-1A peptide 59 = target: T5, 17-1A peptide 59 (human); experiment: as above
T5 construct: also called peptide spot 59
T5 peptide: ITCSERVRTYWII-{Pep Spots Membrane}
Excerpt: as §1, §2, §3

17-1A peptide 11 = target: T6, 17-1A peptide 11 (human, cysteine pairing not given here); experiment: as above
T6 construct: also called peptide spot 11
T6 peptide: NCFVNNNRQCQCT-{Pep Spots Membrane}
Excerpt: as §1, §2, §3

17-1A peptide 13 = target: T7, 17-1A peptide 13 (human, cysteine pairing not given here); experiment: as above
T7 construct: also called peptide spot 13
T7 peptide: NNNRQCQCTSVGA-{Pep Spots Membrane}
Excerpt: as §1, §2, §3

[1] = target: T8, recombinant soluble human 17-1A-antigen (human, UniProt P16422 24-265); experiment: SPR (BIACORE 2000), s17-1A immobilized on CM5 chip, 1. set
T8 construct: extracellular domain; also called s17-1A; soluble 17-1A-antigen
T8 sequence (looked up): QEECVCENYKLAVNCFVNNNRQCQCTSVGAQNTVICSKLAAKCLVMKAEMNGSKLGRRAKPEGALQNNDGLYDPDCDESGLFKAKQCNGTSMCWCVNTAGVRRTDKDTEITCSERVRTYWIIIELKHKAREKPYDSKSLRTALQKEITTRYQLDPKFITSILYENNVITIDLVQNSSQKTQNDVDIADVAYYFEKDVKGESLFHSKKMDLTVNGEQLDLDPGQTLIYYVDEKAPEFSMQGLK
Method: Surface plasmon resonance measurement was performed using the BIACORE 2000 device (Biacore AB, Freiburg, Freiburg, Germany). Immobilization of recombinant soluble 17-1A-antigen in each flow cell and analysis of the interaction was carried out with an automatic method in BIACORE 2000. The antigen was covalently coupled to sensor chip CM5 via primary amine groups. After activation of the carboxylated dextran matrix of CM5 sensor chip with a single injection of 80 μl of 0.1 M N-hydroxisuccinimide/0.4 M N-ethyl-N′-(3-dimethylaminopropyl)-carbodiimide (NHS/EDC9) through all four flow cells, flow cells 1,2,3 and 4 were successively included ito the flow path during injection of s17-1A-antigen (60 μg/ml in 10 mM sodium acetate, pH 4.7). Different contact times of 17-1A to the activated surface lead to approximately 2500 response units (RU9 in flow cell 1, […] in flow cell 2, 780 RU in flow cell 3 and 290 RU in flow cell 4). Excess activated esters were blocked by injection of 85 μl 1 M ethanolamine pH 5 over all four flow cells. Binding experiments were performed at 25° C. in buffer of pH 7.4 containing 10 mM Hepes, 150 mM NaCl, 3 mM EDTA and 0.005% surfactant P20. The binding kinetics of antibodies to immobilized recombinant 17-1A were determined by injecting antibody concentrations ranging from 0.5 to 2 μM. The sensor chip was regenerated between each run with 100 mM Glycin, 500 mM NaCl, 0.005% Tween pH3. The association and dissociation rate constants, Kon and Koff were analysed using BIA-evaluation software from Biacore AB as described (Karlsson, (1991) J Immunol Meth 145: 229-240). Two sets of affinity determinations were carried out (1.set: M79, H79, D7.2, Panorex; 2. set: Panorex, HD70); the murine Panorex was also included in set 2 as internal reference.

[2] = target: T9, human 17-1A-antigen on cells (Kato gastric cancer cells, 17-1A-transfected CHO cells, colon tissue) (human, UniProt P16422 24-314); experiment: flow cytometry on Kato cells and 17-1A-transfected CHO cells, periplasma preparation
T9 construct: whole, on cells; also called transmembrane 17-1A; CHO/17-1A
T9 sequence (looked up): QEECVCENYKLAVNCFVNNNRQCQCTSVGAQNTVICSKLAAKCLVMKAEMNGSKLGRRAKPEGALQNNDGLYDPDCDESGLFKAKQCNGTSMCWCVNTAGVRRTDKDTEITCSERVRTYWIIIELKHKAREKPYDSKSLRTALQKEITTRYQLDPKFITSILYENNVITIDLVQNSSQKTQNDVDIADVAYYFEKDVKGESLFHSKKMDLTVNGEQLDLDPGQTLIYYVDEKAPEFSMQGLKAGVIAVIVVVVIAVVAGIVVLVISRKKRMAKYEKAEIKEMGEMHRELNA
Excerpt: The test for binding of the two 17-1A positive human Fab-fragments (k8-D4.5-Fab and k5.1-D4.5-Fab) on Kato-cells (17-1A expressing gastric cancer cell-line), 17-1A transfected CHO-cells (CHO/17-1A) and non-transfected CHO-cells was again carried out with the periplasma preparations. CHO transfected cell-lines were generated by subcloning of a DNA-fragment encoding the complete amino acid sequence of the 17-1A-antigen also known as GA733-2 (Szala, Proc. Natl. Acad. Sci. U.S.A. 87 (1990), 3542-3546), into the eucaryotic expression vector pEF-DHFR (Mack, , Proc. Natl. Acad. Sci. U.S.A. 92 (1995) 7021-7025) according to standard procedures (Sambrook, Molecular Cloning; A Laboratory Manual, Second Edition, Cold Spring Harbour Laboratory Press, Cold Spring Harbour, N.Y. (1989)). The resulting plasmid was linearized with NdeI and transfected into DHFR-deficient CHO-cells for stable expression. The expression of transmembrane 17-1A was increased by stepwise gene amplification induced by subsequent addition of increasing concentrations of the DHFR-inhibitor Methotrexat (MTX) to a final concentration of 500 nM, with the concentration steps in between being 20 nM and 100 nM (Kaufmann, Methods Enzymol. 185 (1990), 537-566). […] Labeled cells were then analyzed by flow cytometry.

[3] = target: T8, recombinant soluble human 17-1A-antigen; experiment: ELISA of periplasma Fab preparations on immobilized s17-1A
Method: As previously mentioned in example I, E. coli XL1 Blue transformed with pComb3H containing one light and the Fd-segment of one heavy chain produce soluble Fab in sufficient amounts after excision of the gene III fragment and induction with IPTG. The heavy chain Fd-segment and the light chain are exported into the periplasma where they assemble and form functional Fab-fragments. For better periplasma preparations the cells were grown in SB-medium supplemented with 20 mM MgCl₂ and are redissolved in PBS after harvesting. By four rounds of freezing at −70° C. and thawing at 37° C., the outer membrane of the bacteria was destroyed by temperature shock and the soluble periplasmatic proteins including the Fab fragments were released into the supernatant. After elimination of intact cells and cell-debris by centrifugation, the supernatants containing the Fab-antibody-fragments were collected and used for further examination. […]
Detection of k8-D4.5 and k5.1-D4.5-Fab-fragments bound to immobilized s17-1A anigen was carried out using a polyclonal biotinylated anti-human-kappa light chain antibody (1 μg/ml PBS) detected with horse raddish conjugated Avidine (1 μg/ml PBS). The signal was developed by adding a substrate solution, containing 2,2′Azino-bis(3-Ethylbenz-Thiazoline-6-Sulfonic Acid) and Na-perborate and detected at a wavelength of 405 nm.

[4] = target: recombinant soluble human 17-1A-antigen (human) (UniProt P16422); experiment: SPR (BIACORE 2000), s17-1A immobilized on CM5 chip, 1. set
[5] = target: recombinant soluble human 17-1A-antigen (human) (UniProt P16422); experiment: SPR (BIACORE 2000), s17-1A immobilized on CM5 chip, 2. set (internal reference)

B1: H79-huIgG1 (VD4.5huIgG1-k8) (antibody, V domains shown)
VH: EVQLLESGGGVVQPGRSLRLSCAASGFTFSSYGMHWVRQAPGKGLEWVAVISYDGSNKYYADSVKGRFTISRDNSKNTLYLQMNSLRAEDTAVYYCAKDMGWGSGWRPYYYYGMDVWGQGTTVTVSS
VL: ELQMTQSPSSLSASVGDRVTITCRTSQSISSYLNWYQQKPGQPPKLLIYWASTRESGVPDRFSGSGSGTDFTLTISSLQPEDSATYYCQQSYDIPYTFGQGTKLEIK
notes: Complete antibody produced in CHO cells; also called H79 human IgG1; human H79
17-1A peptide 60
  binding result: binds
17-1A peptide 79
  binding result: binds
17-1A peptide 8
  binding result: binds
17-1A peptide 14
  binding result: binds
17-1A peptide 59
  binding result: binds
17-1A peptide 11
  binding result: binds
17-1A peptide 13
  binding result: binds
[1]
  Kd: 340 nM
  koff: 0.0072 s⁻¹
  kon: 21000 M⁻¹ s⁻¹

B2: k5.1-D4.5-Fab (Fab, V domains shown)
VH: B1 VH
VL: ELQMTQSPSSLSASVGDRVTITCRASQSISSYLNWYQQKPGQPPKLLIYWASTRESGVPDRFSGSESGTNYTLTISSLQPEDFATYFCQQSDSLPITFGQGTRLDIQ
notes: Soluble Fab tested as an E. coli periplasma preparation
[2]
  binding result: binds
[3]
  binding result: binds

B3: Panorex (antibody, INN chains, looked up, V domains shown)
VH: QVQLQQSGAELVRPGTSVKVSCKASGYAFTNYLIEWVKQRPGQGLEWIGVINPGSGGTNYNEKFKGKATLTADKSSSTAYMQLSSLTSDDSAVYFCARDGPWFAYWGQGTLVTVSA
VL: NIVMTQSPKSMSMSVGERVTLTCKASENVVTYVSWYQQKPEQSPKLLIYGASNRYTGVPDRFTGSGSATDFTLTISSVQAEDLADYHCGQGYSYPYTFGGGTKLEIK
[4]
  Kd: 200 nM
  koff: 0.022 s⁻¹
  kon: 110000 M⁻¹ s⁻¹
[5]
  Kd: 270 nM
  koff: 0.027 s⁻¹
  kon: 100000 M⁻¹ s⁻¹
